Test results from paper doi:10.1101/2023.01.20.524964 (bioRxiv, 2023).
Changes are numbered by the printed parent chain. Names may count otherwise. Values belong to the molecule of their own block, whether it stands above or below them.

What was measured:
[1] = biological target: Karyopherin-β2 (full length, GST tag removed) (UniProt Q92973); assay: ITC
Kapβ2(W373A) = biological target: T1, Kapβ2(W373A) (UniProt Q92973-2 1-890, W373A); assay: ITC
T1 sequence (looked up): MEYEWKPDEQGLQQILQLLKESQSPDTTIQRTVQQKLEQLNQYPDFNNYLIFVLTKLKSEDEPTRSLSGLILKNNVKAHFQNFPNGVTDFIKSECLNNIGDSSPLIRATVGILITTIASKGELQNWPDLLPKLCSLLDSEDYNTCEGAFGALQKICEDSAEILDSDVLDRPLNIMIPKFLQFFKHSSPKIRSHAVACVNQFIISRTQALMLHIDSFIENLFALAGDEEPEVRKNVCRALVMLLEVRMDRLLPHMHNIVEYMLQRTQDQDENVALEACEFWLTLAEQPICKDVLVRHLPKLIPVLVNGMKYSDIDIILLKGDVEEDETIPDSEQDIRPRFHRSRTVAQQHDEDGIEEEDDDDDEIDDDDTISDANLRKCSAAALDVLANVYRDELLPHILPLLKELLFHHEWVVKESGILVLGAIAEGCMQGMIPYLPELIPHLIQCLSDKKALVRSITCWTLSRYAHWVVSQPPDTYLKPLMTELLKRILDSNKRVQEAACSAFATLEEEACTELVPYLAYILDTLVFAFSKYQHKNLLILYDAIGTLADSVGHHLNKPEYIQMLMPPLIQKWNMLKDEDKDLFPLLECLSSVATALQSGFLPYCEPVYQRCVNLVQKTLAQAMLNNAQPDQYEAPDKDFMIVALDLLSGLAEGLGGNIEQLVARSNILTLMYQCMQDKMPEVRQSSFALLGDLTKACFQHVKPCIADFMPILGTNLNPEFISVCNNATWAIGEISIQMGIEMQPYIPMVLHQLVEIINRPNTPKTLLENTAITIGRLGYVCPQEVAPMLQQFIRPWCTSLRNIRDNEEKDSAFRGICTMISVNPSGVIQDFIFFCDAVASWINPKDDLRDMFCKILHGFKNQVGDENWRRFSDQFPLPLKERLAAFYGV

[2] = biological target: T2, Karyopherin-β2 (full length, GST tag removed) (UniProt Q92973-2 1-890); assay: ITC
T2 sequence (looked up): T1 sequence (looked up) with A373W

[3] = biological target: T2, Karyopherin-β2 (full length, GST tag …); assay: SEC

Chain of Karyopherin-β2 (full length, GST tag removed) (UniProt Q92973) (Q92973 9-898): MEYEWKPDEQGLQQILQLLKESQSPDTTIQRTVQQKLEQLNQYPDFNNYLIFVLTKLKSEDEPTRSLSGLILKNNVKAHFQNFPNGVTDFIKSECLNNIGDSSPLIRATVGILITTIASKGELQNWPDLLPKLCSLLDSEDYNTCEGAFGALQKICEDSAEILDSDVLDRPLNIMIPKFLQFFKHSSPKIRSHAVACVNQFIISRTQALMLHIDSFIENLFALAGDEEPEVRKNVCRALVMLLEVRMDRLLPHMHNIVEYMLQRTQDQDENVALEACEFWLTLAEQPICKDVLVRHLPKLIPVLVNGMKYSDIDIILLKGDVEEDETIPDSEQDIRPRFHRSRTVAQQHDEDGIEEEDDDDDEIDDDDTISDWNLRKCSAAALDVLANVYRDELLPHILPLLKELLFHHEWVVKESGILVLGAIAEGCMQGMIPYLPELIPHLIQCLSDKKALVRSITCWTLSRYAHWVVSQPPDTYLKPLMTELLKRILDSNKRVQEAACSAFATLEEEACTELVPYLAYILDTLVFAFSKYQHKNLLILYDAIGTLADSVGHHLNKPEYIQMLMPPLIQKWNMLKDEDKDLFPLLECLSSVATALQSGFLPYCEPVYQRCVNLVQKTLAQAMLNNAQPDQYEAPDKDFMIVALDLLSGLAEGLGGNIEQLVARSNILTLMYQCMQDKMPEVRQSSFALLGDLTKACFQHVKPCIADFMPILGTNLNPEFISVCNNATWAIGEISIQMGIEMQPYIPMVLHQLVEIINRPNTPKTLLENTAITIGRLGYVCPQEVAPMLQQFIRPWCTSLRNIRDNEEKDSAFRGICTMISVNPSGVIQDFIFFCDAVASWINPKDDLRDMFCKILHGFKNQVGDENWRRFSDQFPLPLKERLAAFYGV

Molecule: MBP-HNRNPH2 R212A (ITC) (from UniProt P55795 103-225) (domain or fragment)
Kd [1]: 3200 nM

Molecule: HNRNPM PY-NLS (domain or fragment)
Kd (Kapβ2(W373A)): 9 nM

B1: MBP-HNRNPH2(103-225) (domain or fragment, UniProt P55795 103-225, looked up)
chain: NSPDTANDGFVRLRGLPFGCSKEEIVQFFSGLEIVPNGMTLPVDFQGRSTGEAFVQFASQEIAEKALKKHKERIGHRYIEIFKSSRAEVRTHYDPPRKLMAMQRPGPYDRPGAGRGYNSIGRG
Kd (Kapβ2(W373A)): 6100 nM
Kd [2]: 50 nM

The next lines start with the values.

Kd [2]: 40 nM
Molecule: EVRTHYDPPRKLMAMQRPGPYDRPGAGRGYNSIGRG (domain or fragment, UniProt P55795 190-225, looked up) [MBP-HNRNPH2(190-225)]

binding result [3]: binds
B2: HNRNPH2(103-225) (as used for SEC and cryo-EM) (domain or fragment, UniProt P55795 103-225, looked up)
chain: B1 chain
modifications: mild crosslinking with 0.025% glutaraldehyde in the cryo-EM sample

fold decrease of affinity against wild type [2]: ~200 fold
B3: MBP-HNRNPH2(103-225) P209L (domain or fragment, UniProt P55795 103-225, looked up)
chain: B1 chain with P107L
